According to patent publication US11807881B2, “Polypeptide, fusion polypeptide, and antibiotic against gram-negative bacteria comprising same” (priority 2020, dated 2023):

What was measured:
[1] = system: Pseudomonas aeruginosa PA01; assay: Galleria mellonella Pseudomonas aeruginosa infected model, viability; type: in vivo; details: PA01 50 CFU/larva
Method: The Pseudomonas aeruginosa killing ability of the endolysin LNT101 was also confirmed in vivo. As an animal model for the in vivo effectivity evaluation, Galleria mellonella was used. The Galleria mellonella model was divided into the healthy group (non-infection group), Pseudomonas aeruginosa infected group (drug non-administration group), 2 LNT101 administration groups in which LNT101 was administered into the infection model, Colistin administration group in which colistin was administered into the Pseudomonas aeruginosa infected model, and combination administration group in which LNT101 and colistin were administered in combination into the Pseudomonas aeruginosa infected model to progress an experiment, and 10 of Galleria mellonella per each group was used.
The Pseudomonas aeruginosa infected model was prepared by infecting Pseudomonas aeruginosa PA01 at the LD80 concentration, 50 CFU/larva, and LNT101 was administered at 0.6 μg/larva (3 mg/Kg) and 6 μg/larva (30 mg/Kg), respectively. Colistin was administered at 0.5 μg/larva (2.5 mg/Kg), and for administration in combination, Colistin at 0.5 μg/larva (2.5 mg/Kg) and LNT101 at 6 μg/larva (30 mg/Kg) were administered. […] In particular, in the LNT101 6 μg/larva (30 mg/Kg) administration group, the viability of 30% was confirmed.

Pseudomonas aeruginosa = assay: CFU reduction test (killing ability in vitro); type: cell-based
Method: For this, the endolysin LNT101 at a concentration of 0.1, 0.5, 1.0 μM and Pseudomonas aeruginosa (ATCC 13388) […] CFU were added so that the final volume was 200 μl to reaction buffer (20 mM Tris-Cl, pH 7.5) and they were left at 37° C. for […]. In 30 minutes, 1 hour and 2 hours, the number of colonies of Pseudomonas aeruginosa was confirmed, and the result was shown in FIG. 3.
In addition, that the LNT101 endolysin had the antibacterial ability in various gram negative bacterium was confirmed by a CFU reduction test, and the result was shown in Table 2 below.

E. coli = assay: MIC and MBC, broth microdilution in CAA media; type: cell-based
Method: In addition, MIC (Minimal Inhibitory Concentration) and MBC (Minimal Bactericidal Concentration) of the fusion polypeptide LNT103 were measured. […] Specifically, the LNT103 was treated at a concentration of 64 μg/ml to a 96 well microplate row A, and the LNT103 was treated at a concentration where serial dilution was performed by ½ in rows B-G. To the row H, LNT103 was not treated. After that, the corresponding bacterium strain (type or QC, CCARM and clinical separation strain; See Tables 2-4) was treated in an amount of 5×10^5 CFU/ml, total 100 μl in all wells. Then, it was cultured at 37° C. for 18 hours. MIC was determined to be the lowest concentration at which no colonies were identified by confirming the number of the colonies in each well.

Huh-7 cell line = type: cell-based
Method: In vitro toxicity of the fusion polypeptide LNT103 was evaluated by cell cytotoxicity assay (WST assay) using Huh-7 cell line and hemolysis assay using sheep blood (MB cell).
The process of progressing the cell cytotoxicity assay was as follows. The Huh07 cell culture solution was prepared and aliquoted in an amount of […] per well in a 96 well plate, and it was cultured in a CO2 incubator for 24 hours. Then, PBS as a negative control and 1% (w/v) triton X-100 as a positive control were treated, and as an experimental group, the fusion polypeptide LNT103 was treated at a concentration of 0.25, 0.5, or 1 mg/ml, and then it was left in a CO2 incubator for 24 hours and 48 hours. Then, the cell viability was measured using D-Plus™ CCK cell viability assay kit (Dongin LS), and the result was shown in FIG. 18.

Klebsiella pneumoniae = assay: CFU reduction evaluation; type: cell-based; details: Klebsiella pneumoniae (ATCC 2208); 2 μM, 2 hours
Method: (§1) In order to confirm the killing ability against gram negative bacterium of the fusion polypeptide LNT103 prepared in Example 3.2, CFU reduction evaluation was performed for various gram negative bacterium. In order to perform the CFU reduction evaluation, 2 μM of each of LNT101, LNT102, and LNT103 prepared in Example 3, and 1×10^6 CFU of each of Pseudomonas aeruginosa (PA01; ATCC 15692), Acinetobacter baumannii (ATCC 17978), Escherichia coli (ATCC 8739), Klebsiella pneumoniae (ATCC 13883), and Enterobacter aerogenes (CCARM 16006) were added to reaction buffer (20 mM Tris-Cl, pH7.5) so that the final volume was 200 μl, and it was left at 37° C. for 2 hours. After that, the number of the colonies of each gram negative bacterium was confirmed to compare and evaluate the antibiotic effect of each polypeptide. As a control group, the PBS treatment group (treating PBS in the same volume as the fusion polypeptide) was used.

Escherichia coli = assay: CFU reduction evaluation; type: cell-based; details: E. coli (ATCC 8739); 2 μM, 2 hours
Method: as §1

B1: LNT101: endolysin derived from bacteriophage PBPA90, amino acid sequence SEQ ID NO: 1 (259 aa), purified with 6× His tag (protein)
chain: MGTVLKRGDRGSAVEDLQMKLRVAGYAVSADGIFGGDTEKAVRDFQASKALVVDGKVGPATLAELAKSATVPAKWEAIPFPTANKSRSAAMPTLNAVGAMTGTDSRLLATFASIESAFDYTVKASTSSATGWFQFLDATWDDMIKAHGSKYGIPKDPTRALRKDPRANALMGAEFLKGNAAVLRPVINREPSDTDLYLAHFLGAGGAKKFLSADQKTLGEVLFPKPAKANPSIFSNKGVPRTLAEIYKLFEDKVSKHRA
modifications: 6xHis tag; synthetic_Endolysin LNT101
In the case of B1, the “viability of Galleria mellonella” value ([1]; LNT101 6 μg/larva (30 mg/Kg), 72 hours) is reported as 30%, the “viability of Galleria mellonella” value ([1]; LNT101 0.6 or 6 μg/larva, Colistin 0.5 μg/larva, observation for 72 hours) is reported as “the viability was increased” and the “killing ability against Pseudomonas aeruginosa (number of colonies)” value (Pseudomonas aeruginosa; ATCC 13388 10^6 CFU, 0.1, 0.5, 1.0 μM, 30 minutes, 1 hour and 2 hours, 37° C.) is reported as “had the killing ability against Pseudomonas aeruginosa in all the tested treatment dose and time”. For the same molecule, the CFU reduction (Pseudomonas aeruginosa; P. aeruginosa ATCC 13388) was “◯ (‘◯’ means reduction of 0.5 log CFU or more through the CFU reduction assay)”, the CFU reduction (Pseudomonas aeruginosa; P. aeruginosa ATCC 15522) was “◯ (‘◯’ means reduction of 0.5 log CFU or more through the CFU reduction assay)” and the CFU reduction (Pseudomonas aeruginosa; P. aeruginosa CCARM 2092) was “◯ (‘◯’ means reduction of 0.5 log CFU or more through the CFU reduction assay)”. The CFU reduction (Pseudomonas aeruginosa; P. aeruginosa CCARM 2134) was “◯ (‘◯’ means reduction of 0.5 log CFU or more through the CFU reduction assay)”, the CFU reduction (Pseudomonas aeruginosa; P. aeruginosa CCARM 2144) was “◯ (‘◯’ means reduction of 0.5 log CFU or more through the CFU reduction assay)” and the CFU reduction (Pseudomonas aeruginosa; P. aeruginosa CCARM 2326) was “◯ (‘◯’ means reduction of 0.5 log CFU or more through the CFU reduction assay)”. The CFU reduction (Pseudomonas aeruginosa; P. aeruginosa F141) was “◯ (‘◯’ means reduction of 0.5 log CFU or more through the CFU reduction assay)” and the CFU reduction (Pseudomonas aeruginosa; P. aeruginosa PAO1) was “◯ (‘◯’ means reduction of 0.5 log CFU or more through the CFU reduction assay)”.

B2: LNT103: fusion polypeptide [Cecropin A]-[linker (GSGSGS)]-[endolysin LNT102]; SEQ ID NO: 15 (MAS, His tag) used in the tests (protein)
chain: MASKWKLFKKIEKVGQNIRDGIIKAGPAVAVVGQATQIAKGSGSGSMGTVLKRGDRGSAVEDLQMKLNVAGYNLSADGIFGGDTEKAVRDVQAGAGLVVDGKVGPKTLYAIAKSATVPAKWEAIPFPTANKSRSAAMPTLNAVGAMTGVDSRLLATFASIESAFDYTVKAKTSSATGWFQFLDATWDDMIKAYGSKYGIPKDPTRALRKDPRANALMGAEFIKGNAAVLRPVINREPSDTDLYLAHFLGAGGAKKFLSADQKTLGEVLFPKPAKANPSIFSNKGVPRTLAEIYKLFEDKVSKHRALEHHHHHH
modifications: synthetic_Fusion Polypeptide LNT103 with MAS, His tag, and extra sequence
With B2 the MBC (E. coli; E. coli ATCC 8739) was 8 µg/mL, the MIC (E. coli; E. coli ATCC 8739) was 8 µg/mL and the MBC (E. coli; E. coli CCARM 1A746) was 8 µg/mL. For the same molecule, the MIC (E. coli; E. coli CCARM 1A746) was 8 µg/mL, the MBC (E. coli; E. coli CCARM 1B684) was 8 µg/mL and the MIC (E. coli; E. coli CCARM 1B684) was 4 µg/mL. It also gave an MBC (E. coli; E. coli CCARM 1G448) of 4 µg/mL, an MIC (E. coli; E. coli CCARM 1G448) of 4 µg/mL and an MBC (E. coli; E. coli CCARM 1460) of 4 µg/mL. The MIC (E. coli; E. coli CCARM 1460) was 4 µg/mL, the MBC (E. coli; E. coli F340) was 16 µg/mL and the MIC (E. coli; E. coli F340) was 16 µg/mL. The MBC (E. coli; E. coli F481) was 8 µg/mL, the MIC (E. coli; E. coli F481) was 8 µg/mL and the MBC (E. coli; E. coli F485) was 8 µg/mL. For the same molecule, the MIC (E. coli; E. coli F485) was 4 µg/mL, the MBC (E. coli; E. coli F524) was 16 µg/mL and the MIC (E. coli; E. coli F524) was 16 µg/mL. For the same molecule, the MBC (E. coli; E. coli F716) was 32 µg/mL, the MIC (E. coli; E. coli F716) was 16 µg/mL and the MBC (E. coli; E. coli F852) was 32 µg/mL. The MIC (E. coli; E. coli F852) was 16 µg/mL, the MBC (E. coli; E. coli F859) was 32 µg/mL and the MIC (E. coli; E. coli F859) was 32 µg/mL. The MBC (E. coli; E. coli F862) was 4 µg/mL, the MIC (E. coli; E. coli F862) was 4 µg/mL and the MBC (E. coli; E. coli FORC81) was 4 µg/mL. For the same molecule, the MIC (E. coli; E. coli FORC81) was 4 µg/mL, the MBC (E. coli; E. coli UPEC 3042) was 32 µg/mL and the MIC (E. coli; E. coli UPEC 3042) was 32 µg/mL. For the same molecule, the MBC (E. coli; E. coli UPEC 3181) was 8 µg/mL, the MIC (E. coli; E. coli UPEC 3181) was 8 µg/mL and the “IC50 (cytotoxicity)” value (Huh-7 cell line) was greater than 1000 µg/mL. The “CFU Counting result” value (Klebsiella pneumoniae) was 0 log CFU/ml and the “CFU Counting result” value (Escherichia coli) was 0 log CFU/ml.
